Molecular target: T1, Anopheline antiplatelet protein (AAPP) (Anopheles stephensi (endogenous in …, UniProt Q7YT37))
T1 construct: Anopheline antiplatelet protein (AAPP), predominant saliva protein of Anopheles stephensi; acidic secretory protein, Mr = 37 kDa on immunoblots; Same endogenous protein in saliva and in salivary gland lysates; in TG mosquitoes it is present together with mDsRed-8H7scFv; source: endogenous, Anopheles stephensi saliva and salivary gland lysates/homogenates (WT and TG mosquitoes)
Experiment: pull-down; Ni-NTA beads added to lysates (Cellytic M) of dissected salivary glands of TG and WT mosquitoes, 1 h on ice, washed with PBS; His-tagged mDsRed-8H7scFv held on the resin; eluate blotted with anti-AAPP mAb 28B8 and anti-mDsRed polyclonal Ab
Details: partners not purified

T1 sequence (Q7YT37 20-269): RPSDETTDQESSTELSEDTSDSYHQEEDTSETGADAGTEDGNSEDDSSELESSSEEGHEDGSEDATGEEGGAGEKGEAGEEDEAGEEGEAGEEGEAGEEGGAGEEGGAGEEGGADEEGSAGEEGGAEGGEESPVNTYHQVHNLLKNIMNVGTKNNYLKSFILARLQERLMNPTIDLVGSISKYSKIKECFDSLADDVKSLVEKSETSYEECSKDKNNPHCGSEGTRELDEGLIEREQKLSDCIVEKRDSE

B1: mDsRed-8H7scFv (scFv, V domains shown)
VH: QVQLQQPGAELVRPGASVKLSCKASGYTFTSYWMNWVKQRPGQGLEWIGLIDPSDSETHYNQMFKDKATLTVDKSSSTAYMQLSSLTSEDSAVYYCARGGTYWGQGTTLTVSS
VL: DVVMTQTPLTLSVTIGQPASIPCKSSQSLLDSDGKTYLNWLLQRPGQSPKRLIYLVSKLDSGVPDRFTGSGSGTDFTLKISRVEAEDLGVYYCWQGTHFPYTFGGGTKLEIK
notes: VH of the anti-AAPP mAb 8H7; hinge/linker, printed as (Gly4Ser)3; VL of the anti-AAPP mAb 8H7; 54.6 kDa on blots; 8H7scFv is fused to monomeric DsRed through Gly4Ser x 3 linkers; The secretion signal is not described; also called anti-AAPP scFv; anti-AAPP antibody single-chain fragment; source: transgenic Anopheles stephensi (TG-03, TG-30, TG-37), expressed in salivary glands under the aapp …
Question: Does B1 bind?
Answer: binds
